Test results from patent publication US20250368754A1 (KANAPH THERAPEUTICS, published 2025).

B1: T3.01 (anti-hu FAP/hu scLIGHT3, hu IgG1 DANG) (bispecific antibody)
heavy: QVQLVQSGAEVKKPGASVKVSCKTSRYTFTEYTIHWVRQAPGQRLEWIGGINPNNGIPNYNQKFKGRVTITVDTSASTAYMELSSLRSEDTAVYYCARRRIAYGYDEGHAMDYWGQGTLVTVSSASTKGPSVFPLAPSSKSTSGGTAALGCLVKDYFPEPVTVSWNSGALTSGVHTFPAVLQSSGLYSLSSVVTVPSSSLGTQTYICNVNHKPSNTKVDKKVEPKSCDKTHTCPPCPAPELLGGPSVFLFPPKPKDTLMISRTPEVTCVVVAVSHEDPEVKFNWYVDGVEVHNAKTKPREEQYGSTYRVVSVLTVLHQDWLNGKEYKCKVSNKALPAPIEKTISKAKGQPREPQVYTLPPSRDELTKNQVSLWCLVKGFYPSDIAVEWESNGQPENNYKTTPPVLDSDGSFFLYSKLTVDKSRWQQGNVFSCSVMHEALHNHYTQKSLSLSPGK
light: not shown
chain: not shown
notes: Knob-into-hole heterodimer: one anti-FAP Fab arm and one single-chain human LIGHT (91-240) homotrimer arm
B2: T3.14 (anti-hu FAP/hu scLIGHT-LTb2, hu IgG1 DANG) (bispecific antibody)
heavy: B1 heavy
light: not shown
chain: not shown
notes: Knob-into-hole; single-chain heterotrimer of one human LIGHT and two human lymphotoxin beta (87-243)

Columns and labels:
human LTβR on A375 cells = human LTβR on A375 cells (human, UniProt P36941 31-435); assay: cell-based or functional assay
human LTβR on A375 cells, sequence (P36941 31-435): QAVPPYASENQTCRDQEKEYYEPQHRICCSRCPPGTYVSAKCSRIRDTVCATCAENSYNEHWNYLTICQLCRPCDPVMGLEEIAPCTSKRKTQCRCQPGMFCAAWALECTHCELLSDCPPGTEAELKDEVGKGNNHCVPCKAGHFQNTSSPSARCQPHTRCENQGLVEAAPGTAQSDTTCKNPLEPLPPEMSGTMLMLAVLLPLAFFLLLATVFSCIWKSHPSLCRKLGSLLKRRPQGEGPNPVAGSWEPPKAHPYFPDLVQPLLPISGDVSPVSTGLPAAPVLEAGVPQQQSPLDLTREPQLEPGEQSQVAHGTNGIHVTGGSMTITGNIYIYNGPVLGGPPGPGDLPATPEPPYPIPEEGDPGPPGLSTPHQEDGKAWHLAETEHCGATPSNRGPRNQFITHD

[1] = target: T1, human FAP on HEK293-hFAP cells (human, UniProt Q12884 1-760); assay: flow cytometry on HEK293-hFAP cells, 1 ug protein per 1x10^5 cells, anti-human IgG detection (axis TMEkine-PE)
T1 construct: whole, on cells; also called human FAP-expressing cell line
T1 sequence (looked up): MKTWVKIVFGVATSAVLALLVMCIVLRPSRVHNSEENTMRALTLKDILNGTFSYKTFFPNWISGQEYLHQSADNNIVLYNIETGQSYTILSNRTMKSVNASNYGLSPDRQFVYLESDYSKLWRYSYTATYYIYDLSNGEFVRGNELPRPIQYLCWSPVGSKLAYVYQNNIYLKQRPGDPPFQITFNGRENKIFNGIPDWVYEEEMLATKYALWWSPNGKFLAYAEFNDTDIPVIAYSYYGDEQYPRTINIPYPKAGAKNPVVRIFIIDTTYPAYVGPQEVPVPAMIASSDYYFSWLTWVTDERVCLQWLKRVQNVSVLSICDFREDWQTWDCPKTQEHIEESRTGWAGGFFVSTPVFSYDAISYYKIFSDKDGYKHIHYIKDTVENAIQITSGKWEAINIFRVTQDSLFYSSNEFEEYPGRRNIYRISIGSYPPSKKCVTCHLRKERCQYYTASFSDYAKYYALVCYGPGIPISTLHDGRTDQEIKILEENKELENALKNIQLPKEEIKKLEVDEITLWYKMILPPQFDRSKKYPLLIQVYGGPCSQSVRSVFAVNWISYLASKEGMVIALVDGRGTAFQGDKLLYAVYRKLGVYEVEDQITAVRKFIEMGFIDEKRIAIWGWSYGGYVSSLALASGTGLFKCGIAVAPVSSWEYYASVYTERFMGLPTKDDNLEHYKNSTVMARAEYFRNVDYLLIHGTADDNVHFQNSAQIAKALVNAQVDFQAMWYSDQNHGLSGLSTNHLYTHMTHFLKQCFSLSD
Protocol: (§1) Specifically, the cell line was prepared by suspending in a FACS buffer solution at 1×10⁵ cells/100 μL, and treated with 1 μg each of T3.10, T3.01, T3.05, T3.06, T3.14, and T3.18. The cells were washed twice with a FACS buffer solution. The cells were stained with an anti-human IgG antibody (Biolegend). The negative control sample was stained only with an anti-human IgG antibody (Biolegend). The expression ratio of the stained cells was measured using BD LSR and analyzed using FlowJo software.

[2] = target: T2, recombinant human lymphotoxin beta receptor (LTβR) (human, UniProt P36941 28-227, limits assumed); assay: SPR, human LTβR immobilised on CM5, fusion protein as analyte, 1:1 binding model
T2 construct: neither construct is described; also called human LTβR; recombinant human LTβR protein
T2 sequence (P36941 28-227 limits assumed): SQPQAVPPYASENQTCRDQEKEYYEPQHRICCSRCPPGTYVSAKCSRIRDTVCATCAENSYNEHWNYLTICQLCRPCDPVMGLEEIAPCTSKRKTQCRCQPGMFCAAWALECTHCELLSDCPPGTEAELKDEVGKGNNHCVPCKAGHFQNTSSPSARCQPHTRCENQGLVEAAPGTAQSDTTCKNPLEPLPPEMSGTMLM
Protocol: Specifically, the surface of the CM5 chip was activated with a 1:1 mixture of […], and 5 μg/mL of human LTβR was immobilized for 60 seconds at a rate of 10 μL/min. The remaining active ester groups were blocked with 1 M ethanolamine. […] The diluted fusion proteins were reacted at a rate of 30 μL/min. The association and dissociation times were 180 seconds and 400 seconds, respectively. After the dissociation step, stabilization was performed for 60 seconds, and then the regeneration step was performed for 30 seconds with a 10 mM glycine pH 1.5 solution at a rate of 30 μL/min.

human DcR3 = target: T3, human DcR3 (human, UniProt O95407 30-300); assay: SPR, human DcR3 immobilised on CM5, fusion protein as analyte, 1:1 binding model
T3 construct: also called LIGHT receptor DcR3
T3 sequence (looked up): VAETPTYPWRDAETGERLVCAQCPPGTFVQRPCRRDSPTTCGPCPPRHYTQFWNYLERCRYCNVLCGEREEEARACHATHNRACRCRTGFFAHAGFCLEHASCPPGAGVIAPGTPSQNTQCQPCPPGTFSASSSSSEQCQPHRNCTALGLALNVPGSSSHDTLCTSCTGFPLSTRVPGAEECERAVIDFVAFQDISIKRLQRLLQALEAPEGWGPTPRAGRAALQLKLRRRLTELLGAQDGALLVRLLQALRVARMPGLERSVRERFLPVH
Protocol: Specifically, the surface of the CM5 chip was activated with a 1:1 mixture of […], and 5 to 6 μg/mL of human DcR3 was immobilized for 60 seconds at a rate of 10 μL/min. The remaining active ester groups were blocked with 1 M ethanolamine. T3.01, T3.07, T3.09, T3.14, and T3.18 were each diluted to 50 nM or 200 nM in 1×HBS-EP+buffer solution and diluted by serial dilution. The diluted fusion proteins were reacted at a rate of 30 μL/min. The association and dissociation times were 180 seconds and 400 seconds, respectively. After the dissociation step, stabilization was performed for 60 seconds, and then the regeneration step was performed for 30 seconds with a 10 mM glycine pH 1.5 solution at a rate of 30 μL/min.

[3] = target: T1, human FAP on HEK293-hFAP cells; assay: flow cytometry on HEK293-hFAP cells, 1 µg protein, anti-human IgG detection
Protocol: as §1

| Binder | IL-8 secretion of A375 cells, EC50 (FIG. 15a) (human LTβR on A375 cells) [nM] | IL-8 secretion of A375 cells, EC50 (FIG. 15b) (human LTβR on A375 cells) [nM] | percent of cells in the positive gate [1] [%] | Kd [2] [nM] | koff [2] [s⁻¹] | kon [2] [M⁻¹ s⁻¹] | Kd (human DcR3) [nM] | koff (human DcR3) [s⁻¹] | kon (human DcR3) [M⁻¹ s⁻¹] | percent of cells bound [3] [%] |
| --- | --- | --- | --- | --- | --- | --- | --- | --- | --- | --- |
| B1 | 0.0368 | 0.0469 | 99.5 | 0.928 | 0.000321 | 346000 | 0.357 | 0.000236 | 662000 | ≥ 99 |
| B2 | 0.0558 |  | 99.9 | 0.29 | 0.000434 | 1.5e+06 | 9.72 | 0.00198 | 204000 | ≥ 99 |
